The source of these data is patent US20180291082A1 (IMMATICS BIOTECHNOLOGIES, published 2018).

The first test addresses T1, HLA-A*03:01 (human).
T1 construct: Peptide-receptive MHC monomer made by UV cleavage of a UV-sensitive peptide
Put plainly: UV-ligand exchange, anti-b2m ELISA; exchange yield grade (+ >10%, ++ >20%, +++ >50, ++++ >75%). An excerpt:
(§1) Candidate peptides for T cell based therapies according to the present invention were further tested for their MHC binding capacity (affinity). The individual peptide-MHC complexes were produced by UV-ligand exchange, where a UV-sensitive peptide is cleaved upon UV-irradiation, and exchanged with the peptide of interest as analyzed. Only peptide candidates that can effectively bind and stabilize the peptide-receptive MHC molecules prevent dissociation of the MHC complexes. To determine the yield of the exchange reaction, an ELISA was performed based on the detection of the light chain (β2m) of stabilized MHC complexes. The assay was performed as generally described in Rodenko et al. (Rodenko et al., 2006).
(§2) 96 well MAXISorp plates (NUNC) were coated over night with 2 ug/ml streptavidin in PBS at room temperature, washed 4× and blocked for 1 h at 37° C. in 2% BSA containing blocking buffer. Refolded HLA-A*02:01/MLA-001 monomers served as standards, covering the range of 15-500 ng/ml. Peptide-MHC monomers of the UV-exchange reaction were diluted 100-fold in blocking buffer. Samples were incubated for 1 h at 37° C., washed four times, incubated with 2 ug/ml HRP conjugated anti-β2m for 1 h at 37° C., washed again and detected with TMB solution that is stopped with […]. Absorption was measured at 450 nm. Candidate peptides that show a high exchange yield (preferably higher than 50%, most preferred higher than 75%) are generally preferred for a generation and production of antibodies or fragments thereof, and/or T cell receptors or fragments thereof, as they show sufficient avidity to the MHC molecules and prevent dissociation of the MHC complexes.
On to STQDTLLIK, for which the peptide exchange yield is 20 to 50%.

Regarding IIAKKYFFK, the peptide exchange yield lay within 20 to 50%.

Turning to KLYPTYSTK, the peptide exchange yield lay in the range of 20 to 50%.

Turning to ATMQSKLIQK, the peptide exchange yield is 50 to 75%.

With ALLGVIIAK, the peptide exchange yield was 20 to 50%.

Take RMPPPLPTR: the peptide exchange yield lay in the range of 20 to 50%.

As for FSLAGALNAGFK, the peptide exchange yield lay in the range of 20 to 50%.

Take GVIIAKKYFFK: the peptide exchange yield lay within 20 to 50%.

Molecule GSAALYLLR returned a peptide exchange yield of 20 to 50%.

The target in a further test is T2, HLA-B*44:02 (human).
T2 construct: Peptide-receptive MHC monomer made by UV cleavage of a UV-sensitive peptide
The description is as above.
Source text: as §1, §2
As to TEATMTFKY, the peptide exchange yield was 50 to 75%.

The molecule KESDGFHRF returned a peptide exchange yield of 50 to 75%.

As to AEKQTPDGRKY, the peptide exchange yield was 20 to 50%.

In turn, TEKEMIQKL displayed a peptide exchange yield of 20 to 50%.

Consider SENPETITY, for which the peptide exchange yield was in the range of 50 to 75%.

With EEAKQVLFL, the peptide exchange yield fell in the range of 20 to 50%.

In turn, EEFETLKEF registered a peptide exchange yield of 20 to 50%.

With KESQLPTVM, the peptide exchange yield is 20 to 50%.

On to AEKDGKLTDY, for which the peptide exchange yield was in the range of 20 to 50%.

On to TEVLDSHIHAY, for which the peptide exchange yield was in the range of 20 to 50%.

Consider GEATLQRIY, for which the peptide exchange yield lay within 10 to 20%.

NEISTFHNL: the peptide exchange yield was in the range of 50 to 75%.

Take KEFNLQNMGL: the peptide exchange yield was 50 to 75%.

On to SESAVFHGF, for which the peptide exchange yield was 50 to 75%.

Regarding EEVDVPIKLY, the peptide exchange yield is 20 to 50%.

For REAEPIPKM, the peptide exchange yield lay in the range of 20 to 50%.

Molecule GEELGFASL displayed a peptide exchange yield of 20 to 50%.

On to LEMPHYSTF, for which the peptide exchange yield is over 75%.

Turning to SEVPVARVW, the peptide exchange yield is over 75%.

In turn, SEPINIIDAL had a peptide exchange yield of 20 to 50%.

As for TEHTQSQAAW, the peptide exchange yield was 50 to 75%.

The molecule TTMDQKSLW gave a peptide exchange yield of 10 to 20%.

The molecule DEYLIPQQGF gave a peptide exchange yield of 50 to 75%.

AENAEYLRV: the peptide exchange yield lay in the range of 20 to 50%.

LQEEKVPAIY gave a peptide exchange yield of 10 to 20%.

For the molecule GEHTSKATL, the peptide exchange yield was in the range of 20 to 50%.

Regarding KENFAGEATL, the peptide exchange yield was 20 to 50%.

In the case of SENIVIQVY, the peptide exchange yield is 20 to 50%.

As to AENLFRAFL, the peptide exchange yield fell in the range of 50 to 75%.

For the molecule FELPTGAGL, the peptide exchange yield lay within 20 to 50%.

The molecule AEERAEAKKKF gave a peptide exchange yield of 20 to 50%.

In the case of ARLTPIPFGL, the peptide exchange yield was in the range of 10 to 20%.

The molecule IEALLESSL gave a peptide exchange yield of 20 to 50%.

In turn, AEQPDGLIL came in with a peptide exchange yield of 20 to 50%.

For EELLHGQLF, the peptide exchange yield was 20 to 50%.

With DESEKTTKSF, the peptide exchange yield was 20 to 50%.

As to AEETCAPSV, the peptide exchange yield lay in the range of 20 to 50%.

For the molecule AEIHTAEI, the peptide exchange yield lay within 20 to 50%.

In the case of NEINEKIAPSF, the peptide exchange yield lay in the range of 50 to 75%.

In turn, AEQTGTWKL had a peptide exchange yield of 20 to 50%.

As to HELENHSMY, the peptide exchange yield fell in the range of 20 to 50%.

EEESLLTSF gave a peptide exchange yield of 50 to 75%.

Molecule QEVLLQTFL yielded a peptide exchange yield of over 75%.

EEAPLVTKAF registered a peptide exchange yield of 20 to 50%.

The molecule MELLLVNKL had a peptide exchange yield of 50 to 75%.

AEHDAVRNAL yielded a peptide exchange yield of 50 to 75%.

YEVDTVLRY: the peptide exchange yield lay in the range of 20 to 50%.

SEAFPSRAL displayed a peptide exchange yield of 50 to 75%.

In turn, KEITGFLLI displayed a peptide exchange yield of 50 to 75%.

As for AEAVLKTLQEL, the peptide exchange yield fell in the range of 50 to 75%.

The molecule EEKLIIQDF displayed a peptide exchange yield of 20 to 50%.
